Target: MIYEI
Assay: crystal structure

- stoichiometry N: 2
Substance: MIYEI

From paper doi:10.1101/2025.03.21.644400
